Biological target: citrullinated human fibrinogen peptide, residues 36-52 (cit-fib) (human)
Experiment: reactivity test against citrullinated peptide; arbitrary units relative to a serum pool standard; antibody at 5 ug/ml

B1: ACPA11 (antibody, V domains shown)
VH: HLQLQESGPKLVKTSETLSLNCSVSRESIVRNDKFWGWVRQPPGKGLEWIGSINPLGRTFYTTSLKDRIRISFDTSEGYFSLSVASVTAADTAIYYCATDGEGVLFDEWSQGTLVTVSS
VL: QPVMTQPPSACGTPGQRVTIPCSGNTSNIGYNIVNWYQQVPGTAPKLLIYDNDKRPSGVPDRFSASKSVTSASLVISGLQSADEADYYCAVWDDDLSGVVIGEGTKLTVL
reactivity (Au/ml at 5 ug/ml): 21 Au/ml
